The numbers were not newly measured in patent US20050181456A1, “Methods for determining the amount of peptide YY in blood” (Nastech Pharmaceutical Company Inc., priority 2004, published 2005), which cites them from elsewhere.

In this series the target is T1, Y2 receptor (Homo sapiens, UniProt P49146).
T1 sequence (P49146 1-381): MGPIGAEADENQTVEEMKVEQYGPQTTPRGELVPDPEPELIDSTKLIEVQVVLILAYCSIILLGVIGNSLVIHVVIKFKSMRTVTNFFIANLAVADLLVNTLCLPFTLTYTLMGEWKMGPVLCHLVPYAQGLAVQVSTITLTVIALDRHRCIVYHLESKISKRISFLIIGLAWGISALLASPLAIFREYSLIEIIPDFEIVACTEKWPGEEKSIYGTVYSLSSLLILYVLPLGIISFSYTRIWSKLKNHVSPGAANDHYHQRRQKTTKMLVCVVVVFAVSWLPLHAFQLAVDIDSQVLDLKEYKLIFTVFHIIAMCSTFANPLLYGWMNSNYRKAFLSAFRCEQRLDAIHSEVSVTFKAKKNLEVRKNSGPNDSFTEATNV
As to conditions: cited from earlier work.

Take “PYY fragment having only residues 22-36: PYY fragment having only residues 22-36 (ASLRHYLNLVTRQRY; listed as Homo sapiens)”: the “binding to the Y2 receptor” value is reported as “will still bind”.
